From PMC4826616

What was measured:
[1] = biological target: MAA-modified bovine serum albumin (bovine) (UniProt P02769); test: ELISA
[2] = biological target: complement factor H (purified CFH) (UniProt P08603); test: flow cytometry on cells
[3] = biological target: MDA-modified low density lipoprotein; test: ELISA

In the case of “complement factor H (purified CFH) (from UniProt P08603 19-1231) (natural protein)”, the Kd [1] is reported as 64 nM.
Work on “MAA-modified bovine serum albumin (from UniProt P02769 25-607)” yielded a percent competition of the binding of CFH to apoptotic blebs [2] of over 60%.
Work on “CFH variant H402 (from UniProt P08603 19-1231) (natural protein)” yielded a reduction of binding against plasma homozygous for the Y402 allele [3] of 52%.
